Target: T1, mature pertactin (Prn), wild type (Bordetella pertussis, strain  …)
T1 construct: Pertactin (Prn) of Bordetella pertussis, mature N-terminal passenger domain (63 kDa), cut from the precursor; Kept in 0.06% C10E5 detergent for native MS; also called Prn antigen; wild-type Prn
T1 chain: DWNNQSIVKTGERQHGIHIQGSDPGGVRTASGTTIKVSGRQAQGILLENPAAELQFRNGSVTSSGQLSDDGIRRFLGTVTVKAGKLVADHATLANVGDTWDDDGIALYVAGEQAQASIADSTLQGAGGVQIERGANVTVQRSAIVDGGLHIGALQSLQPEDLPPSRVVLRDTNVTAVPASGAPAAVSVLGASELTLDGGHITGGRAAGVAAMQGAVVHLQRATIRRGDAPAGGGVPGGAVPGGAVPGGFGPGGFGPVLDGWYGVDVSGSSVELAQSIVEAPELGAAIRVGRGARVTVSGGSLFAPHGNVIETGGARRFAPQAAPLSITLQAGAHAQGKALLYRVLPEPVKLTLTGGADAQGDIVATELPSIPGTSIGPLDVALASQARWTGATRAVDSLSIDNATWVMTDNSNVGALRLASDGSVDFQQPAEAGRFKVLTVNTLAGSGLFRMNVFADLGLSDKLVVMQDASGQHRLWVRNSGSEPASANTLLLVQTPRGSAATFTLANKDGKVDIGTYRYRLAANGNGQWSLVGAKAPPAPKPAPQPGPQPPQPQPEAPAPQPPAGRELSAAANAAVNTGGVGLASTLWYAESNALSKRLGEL
Assay: native MS; titration: fixed 2 µM mAb, Prn 0.5 µM to 8 µM, 250 mM ammonium acetate with 0.06% C10E5
Settings: both partners purified

Row | Binder | stoichiometry N
1 | 2B1 monoclonal antibody (antibody, V domains shown, variable region of 2B1; mouse IgG2a heavy chain constant domains; mouse light chain constant domain; Full-length mouse IgG2a; source: ExpiCHO-S, transfected, purified (Protein A); copies: 2 + 2) VH: QVQLQQSGPELVKPGASVKISCKASGYSFTDYNMYWVKQSHGKSLEWIGYFDPYNGGIYYNQNFKGRATLTVDKSSSTAFMHLNSLTSEDSAVYYCARGGGWFRGFTYWGQGTLVTVSR VL: IQMTQSTSSLSASLGDRVTISCRASQDISNYLNWYQQKPDGTLNLLIYYTSRLHSGVPSRFSGSGSGTDYSLTISNLEQEDIATYFCQQGNTLPYTFGGGTKLEIK | 2 Prn per mAb
2 | 1E7 monoclonal antibody (antibody, V domains shown, variable region of 1E7; mouse IgG2a heavy chain constant domains; mouse light chain constant domain; Full-length mouse IgG2a; source: ExpiCHO-S, transfected, purified (Protein A); copies: 2 + 2) VH: QVQLQQPAAELARPGASVKMSCRASGYTFTTYTMHWVKQRPGQGLEWIGYINPSSGYTDYNQKFRDKITLTADKSSSTAYMQLSSLTSGDSAVYYCAREDYYGQGFTYWGQGTLVTVSR VL: IVMTQSTSSLSASLGDRVTISCRASQDISNYLNWYQQKPDGTVKLLIYYTSRLHSGVPSRFSGSGSGTDYSLTISNLEQEDIATYFCQQGNMFPWTFGGGTKLELK | 2 Prn per mAb
3 | 1F2 monoclonal antibody (antibody, V domains shown, variable region of 1F2; mouse IgG2a heavy chain constant domains; mouse light chain constant domain; Full-length mouse IgG2a; also called 1F2 antibody; source: ExpiCHO-S, transfected, purified (Protein A); copies: 2 + 2) VH: EVQLVESGGGLVKPGESLKLSCAASGFTFNSYTMSWVRQTPEKRLEWVATISSGGSYTYYPDSVKGRFTISRDNAKNTLYLQMSSLKSEDTAMYYCIRVGGLFDYWGQGTTLTVSR VL: IQMIQSHKFMSTSVGDRVSITCKASQDVSTAVAWYQQKPGQSPKLLIYWASTRHTGVPDRFTGSGSGTDFTLTISGVQAEDLALYYCQQHYTTPWTFGGGTKLEIK | 2 Prn per mAb
4 | 2E9 monoclonal antibody (antibody, V domains shown, variable region of 2E9; mouse IgG2a heavy chain constant domains; mouse light chain constant domain; Full-length mouse IgG2a; also called 2E9 mAb; source: ExpiCHO-S, transfected, purified (Protein A); copies: 2 + 2) VH: QVQLQQSGPELVKPGASVKMSCKASGYTFTSNYIHWMKQRPGQGLEWIGWIYPGDGSSKYNEKFKGKTTLTADRSSSTAYMLLSSLTSEDSAIYFCANYFYAMDQWGQGTSVTVSR VL: IVLTQSHKFMSTSVGDRVSITCKASQDVSTAVAWYQQKPGQSPKLLIYWASTRHTGVPDRFTGSGSGTDYTLTISSVQAEDLALYYCQQHYSTPWTFGGGTKLEIK | 2 Prn per mAb

Target: T2, ΔC-term Prn variant (Bordetella pertussis, strain  …, point mutant)
T2 construct: Pertactin (Prn) of Bordetella pertussis, mature passenger domain from which 64 residues at the C-terminus (with the R2 repeat region; unstructured in the X-ray structure) were truncated; also called ΔC-terminal
T2 chain: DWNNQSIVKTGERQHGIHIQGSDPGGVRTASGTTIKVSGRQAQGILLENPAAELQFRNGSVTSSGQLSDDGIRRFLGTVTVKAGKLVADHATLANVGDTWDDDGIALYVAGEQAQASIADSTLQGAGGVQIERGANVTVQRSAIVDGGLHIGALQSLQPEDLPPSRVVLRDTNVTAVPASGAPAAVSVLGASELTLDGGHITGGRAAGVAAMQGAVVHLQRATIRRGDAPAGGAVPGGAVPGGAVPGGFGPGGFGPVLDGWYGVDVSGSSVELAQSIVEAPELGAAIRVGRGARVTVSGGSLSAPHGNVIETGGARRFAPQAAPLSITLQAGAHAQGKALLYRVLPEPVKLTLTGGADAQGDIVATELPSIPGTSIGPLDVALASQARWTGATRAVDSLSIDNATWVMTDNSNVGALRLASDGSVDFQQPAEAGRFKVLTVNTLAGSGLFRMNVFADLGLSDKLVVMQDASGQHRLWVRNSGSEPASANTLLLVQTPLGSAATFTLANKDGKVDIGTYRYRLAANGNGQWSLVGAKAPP
Assay: native MS; 2 µM mAb and 2 µM Prn or Prn variant (equimolar), 250 mM ammonium acetate with 0.06% C10E5, 1 hour at room temperature, nano-ESI on Q Exactive UHMR
Settings: both partners purified

Row | Binder | binding result
5 | PeM-19 monoclonal antibody (R2-specific) (antibody, V domains shown, variable region of PeM-19; mouse IgG2a heavy chain constant domains; mouse light chain constant domain; the methods describe the IgG2a format for the anti-pertactin antibodies in general; also called PeM-19 Ab; source: ExpiCHO-S, transfected, purified (Protein A); copies: 2 + 2) VH: EVQLQQSGPELVKPGASVKIPCKASGYTFTDYNMDWVKQSHGKSLEWIGDINPNTGETIYNQKFEGKASLTVDKSSNTVYMELRSLTSEDTAVYYCARVPFYFDYWGQGTTLTVSR VL: DIVMSQSPSSLTVSVGEKVTMSCKSSQSLLYSRDQKNYLAWYQQKPGQSPKMLIHWASTRASGVPDRFTGSGSGTDFTLTISSVKAEDLAVYYCQQYYFYPRTFGGGTKLELK | no binding (tested: 2 µM each)

Target: T3, Mature Pertactin (Prn) (Bordetella pertussis, strain  …)
T3 construct: pertactin (Prn) of Bordetella pertussis, mature passenger domain; the legend on D1:p9 names 1DAB instead; also called wild-type Prn; wild type Prn
T3 chain: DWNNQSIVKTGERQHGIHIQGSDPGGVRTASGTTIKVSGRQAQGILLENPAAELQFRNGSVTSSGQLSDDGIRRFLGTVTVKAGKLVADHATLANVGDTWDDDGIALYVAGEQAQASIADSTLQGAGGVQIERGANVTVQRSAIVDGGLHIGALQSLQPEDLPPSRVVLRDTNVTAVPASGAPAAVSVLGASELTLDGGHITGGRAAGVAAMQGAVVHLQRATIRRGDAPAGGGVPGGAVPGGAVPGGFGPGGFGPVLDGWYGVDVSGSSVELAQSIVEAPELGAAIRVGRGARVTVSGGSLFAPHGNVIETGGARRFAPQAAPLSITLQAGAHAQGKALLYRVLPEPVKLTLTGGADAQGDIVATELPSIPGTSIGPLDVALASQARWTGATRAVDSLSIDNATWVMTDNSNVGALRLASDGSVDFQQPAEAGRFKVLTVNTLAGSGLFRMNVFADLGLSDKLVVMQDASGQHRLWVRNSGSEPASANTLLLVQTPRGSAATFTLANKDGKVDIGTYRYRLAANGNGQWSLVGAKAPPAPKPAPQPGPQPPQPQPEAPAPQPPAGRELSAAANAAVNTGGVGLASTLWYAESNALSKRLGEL
Assay: BLI; mAb (10 nM) loaded on anti-mouse IgG Fc (AMC) biosensors, dipped into Prn at 50, 25, 12.5, 6.25, 3.125 and 1.56 nM; kinetic buffer (HEPES buffer with 0.01% BSA and 0.002% Tween-20); Octet Red96; 1:1 binding model, global fit, single replicate
Settings: both partners purified

Row | Binder | Kd
6 | 2B1 monoclonal antibody (antibody, V domains shown, 2B1 HC, whole heavy chain as printed: variable region with mouse IgG2a constant domains; 2B1 LC, whole light chain as printed; full-length mouse IgG2a; measured mass 149,064 Da; also called 2B1 mAb; 2B1 Ab; source: ExpiCHO-S, transfected, purified (HiTrap Protein A); copies: 2 + 2) VH: QVQLQQSGPELVKPGASVKISCKASGYSFTDYNMYWVKQSHGKSLEWIGYFDPYNGGIYYNQNFKGRATLTVDKSSSTAFMHLNSLTSEDSAVYYCARGGGWFRGFTYWGQGTLVTVSR VL: IQMTQSTSSLSASLGDRVTISCRASQDISNYLNWYQQKPDGTLNLLIYYTSRLHSGVPSRFSGSGSGTDYSLTISNLEQEDIATYFCQQGNTLPYTFGGGTKLEIK | < 1 nM
7 | 1E7 monoclonal antibody (antibody, V domains shown, 1E7 HC, whole heavy chain as printed: variable region with mouse IgG2a constant domains; a predicted N-linked glycosylation site (NPS) in CDR2 is highlighted; 1E7 LC, whole light chain as printed; full-length mouse IgG2a; measured mass 149,106 Da; also called 1E7 mAb; 1E7 Ab; source: ExpiCHO-S, transfected, purified (HiTrap Protein A); copies: 2 + 2) VH: QVQLQQPAAELARPGASVKMSCRASGYTFTTYTMHWVKQRPGQGLEWIGYINPSSGYTDYNQKFRDKITLTADKSSSTAYMQLSSLTSGDSAVYYCAREDYYGQGFTYWGQGTLVTVSR VL: IVMTQSTSSLSASLGDRVTISCRASQDISNYLNWYQQKPDGTVKLLIYYTSRLHSGVPSRFSGSGSGTDYSLTISNLEQEDIATYFCQQGNMFPWTFGGGTKLELK | < 1 nM
8 | 2E9 monoclonal antibody (antibody, V domains shown, 2E9 HC, whole heavy chain as printed: variable region with mouse IgG2a constant domains; 2E9 LC, whole light chain as printed; full-length mouse IgG2a; measured mass 147,603 Da; also called 2E9 mAb; 2E9 Ab; source: ExpiCHO-S, transfected, purified (HiTrap Protein A); copies: 2 + 2) VH: QVQLQQSGPELVKPGASVKMSCKASGYTFTSNYIHWMKQRPGQGLEWIGWIYPGDGSSKYNEKFKGKTTLTADRSSSTAYMLLSSLTSEDSAIYFCANYFYAMDQWGQGTSVTVSR VL: IVLTQSHKFMSTSVGDRVSITCKASQDVSTAVAWYQQKPGQSPKLLIYWASTRHTGVPDRFTGSGSGTDYTLTISSVQAEDLALYYCQQHYSTPWTFGGGTKLEIK | < 1 nM
9 | 1F2 monoclonal antibody (antibody, V domains shown, 1F2 HC, whole heavy chain as printed: variable region with mouse IgG2a constant domains; 1F2 LC, whole light chain as printed; full-length mouse IgG2a; measured mass 148,317 Da; also called 1F2 mAb; 1F2 Ab; source: ExpiCHO-S, transfected, purified (HiTrap Protein A); copies: 2 + 2) VH: EVQLVESGGGLVKPGESLKLSCAASGFTFNSYTMSWVRQTPEKRLEWVATISSGGSYTYYPDSVKGRFTISRDNAKNTLYLQMSSLKSEDTAMYYCIRVGGLFDYWGQGTTLTVSR VL: IQMIQSHKFMSTSVGDRVSITCKASQDVSTAVAWYQQKPGQSPKLLIYWASTRHTGVPDRFTGSGSGTDFTLTISGVQAEDLALYYCQQHYTTPWTFGGGTKLEIK | < 1 nM
